Reference: patent US20040005688A1

Assays:
[1] = target: Dvl3, mouse homolog of Dsh, C-terminally tagged, expressed from pcDNA3.1 in NIH3T3 cells (mouse) (UniProt Q61062); assay: cell-based or functional assay
[2] = target: Dsh, C-terminally tagged, expressed from pcDNA3.1 in NIH3T3 cells (Drosophila) (UniProt P51140); assay: cell-based or functional assay
Dsh, C-terminally tagged, expressed from pcDNA3.1 in NIH3T3 cells (Drosophila), sequence (P51140 whole entry D276N): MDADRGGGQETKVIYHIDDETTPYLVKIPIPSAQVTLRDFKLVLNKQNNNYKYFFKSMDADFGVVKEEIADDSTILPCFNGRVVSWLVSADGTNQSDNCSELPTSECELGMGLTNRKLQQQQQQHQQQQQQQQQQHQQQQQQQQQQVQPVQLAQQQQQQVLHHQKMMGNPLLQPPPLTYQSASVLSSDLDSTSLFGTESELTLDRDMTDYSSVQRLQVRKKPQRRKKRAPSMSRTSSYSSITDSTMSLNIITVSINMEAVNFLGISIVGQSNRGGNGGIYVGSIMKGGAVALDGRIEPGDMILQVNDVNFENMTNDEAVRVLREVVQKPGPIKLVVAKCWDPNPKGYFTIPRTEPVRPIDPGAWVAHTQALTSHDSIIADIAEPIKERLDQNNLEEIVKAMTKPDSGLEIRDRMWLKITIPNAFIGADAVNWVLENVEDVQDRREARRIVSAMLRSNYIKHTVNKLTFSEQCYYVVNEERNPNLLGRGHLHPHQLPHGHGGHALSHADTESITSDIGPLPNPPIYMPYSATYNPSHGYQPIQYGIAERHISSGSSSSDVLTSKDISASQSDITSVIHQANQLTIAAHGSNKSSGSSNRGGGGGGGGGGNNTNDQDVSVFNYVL

Dvl3, mouse homolog of Dsh, C-terminally tagged, expressed from pcDNA3.1 in NIH3T3 cells (mouse), sequence (Q61062 whole entry): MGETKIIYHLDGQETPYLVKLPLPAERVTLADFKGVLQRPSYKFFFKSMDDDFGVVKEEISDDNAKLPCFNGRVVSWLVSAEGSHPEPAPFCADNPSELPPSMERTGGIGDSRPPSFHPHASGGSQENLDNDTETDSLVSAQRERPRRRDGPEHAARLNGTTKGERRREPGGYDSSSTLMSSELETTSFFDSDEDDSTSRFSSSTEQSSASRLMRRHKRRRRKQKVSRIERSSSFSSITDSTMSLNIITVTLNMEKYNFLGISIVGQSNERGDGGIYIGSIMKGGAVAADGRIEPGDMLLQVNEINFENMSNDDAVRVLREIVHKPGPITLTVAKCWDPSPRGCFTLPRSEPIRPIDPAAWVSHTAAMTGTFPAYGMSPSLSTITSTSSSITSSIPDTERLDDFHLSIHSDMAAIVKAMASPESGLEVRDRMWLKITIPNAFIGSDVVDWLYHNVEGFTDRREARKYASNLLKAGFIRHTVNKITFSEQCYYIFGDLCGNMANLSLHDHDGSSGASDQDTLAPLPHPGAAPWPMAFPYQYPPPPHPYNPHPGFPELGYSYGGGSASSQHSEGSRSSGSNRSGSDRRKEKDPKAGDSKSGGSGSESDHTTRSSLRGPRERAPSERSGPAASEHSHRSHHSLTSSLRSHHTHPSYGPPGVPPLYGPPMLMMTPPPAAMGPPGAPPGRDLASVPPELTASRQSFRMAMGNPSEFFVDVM

activation of the LEF1 reporter (luciferase, NIH3T3 cells) [1]: 95 fold | activation of the LEF1 reporter (luciferase, NIH3T3 cells) [2]: 10 fold
Substance: DAKa, wild type, C-terminally tagged, expressed from pcDNA3.1 in NIH3T3 cells (enzyme)
